Reference: PMC8313675, “Molecular insights into the human ABCB6 transporter” (Cell Discovery, 2021)
Positions count from the first letter of the chain named. Names may count otherwise.

B1: human ABCB6 (hABCB6), wild type, C-terminal Strep-tag (natural protein, UniProt Q9NP58 1-842, looked up)
chain: MVTVGNYCEAEGPVGPAWMQDGLSPCFFFTLVPSTRMALGTLALVLALPCRRRERPAGADSLSWGAGPRISPYVLQLLLATLQAALPLAGLAGRVGTARGAPLPSYLLLASVLESLAGACGLWLLVVERSQARQRLAMGIWIKFRHSPGLLLLWTVAFAAENLALVSWNSPQWWWARADLGQQVQFSLWVLRYVVSGGLFVLGLWAPGLRPQSYTLQVHEEDQDVERSQVRSAAQQSTWRDFGRKLRLLSGYLWPRGSPALQLVVLICLGLMGLERALNVLVPIFYRNIVNLLTEKAPWNSLAWTVTSYVFLKFLQGGGTGSTGFVSNLRTFLWIRVQQFTSRRVELLIFSHLHELSLRWHLGRRTGEVLRIADRGTSSVTGLLSYLVFNVIPTLADIIIGIIYFSMFFNAWFGLIVFLCMSLYLTLTIVVTEWRTKFRRAMNTQENATRARAVDSLLNFETVKYYNAESYEVERYREAIIKYQGLEWKSSASLVLLNQTQNLVIGLGLLAGSLLCAYFVTEQKLQVGDYVLFGTYIIQLYMPLNWFGTYYRMIQTNFIDMENMFDLLKEETEVKDLPGAGPLRFQKGRIEFENVHFSYADGRETLQDVSFTVMPGQTLALVGPSGAGKSTILRLLFRFYDISSGCIRIDGQDISQVTQASLRSHIGVVPQDTVLFNDTIADNIRYGRVTAGNDEVEAAAQAAGIHDAIMAFPEGYRTQVGERGLKLSGGEKQRVAIARTILKAPGIILLDEATSALDTSNERAIQASLAKVCANRTTIVVAHRLSTVVNADQILVIKDGCIVERGRHEALLSRGGVYADMWQLQQGQEETSEDTKPQTMER
notes: ABCB6, Homo sapiens, 842-amino acid protein; theoretical MW 94 kDa; TMD0 (residues 1-244) is in the protein but obscure in the map; PDB and EMDB ids are assigned by the order of the data availability sentence; also called WT hABCB6; hABCB6-WT; not shown: Strep-tag, C-terminal, kept
B2: human ABCB6 E752Q mutant (hABCB6[EQ]), C-terminal Strep-tag (natural protein, UniProt Q9NP58 1-842, looked up)
chain: B1 chain with E752Q
notes: ABCB6, Homo sapiens, 842-amino acid protein, with the Walker B mutation E752Q; Same construct as m1 with E752Q; Incubated with 5 mM ATP-Mg2+ (and 20 uM PPIX) before grid preparation; PDB and EMDB ids are assigned by the order of the data availability sentence; also called hABCB6 E752Q; not shown: Strep-tag, C-terminal, kept

Experiments:
[1] = target: the molecule itself; assay: cryo-EM structure; apo-state WT hABCB6 in POPC:POPE (3:1) MSP2N2 nanodiscs, inward-facing, C2 symmetry, 3.6 A
[2] = target: the molecule itself; assay: cryo-EM structure; hABCB6[EQ] in POPC:POPE MSP2N2 nanodiscs, incubated with 5 mM ATP-Mg2+ for 30 min at 37 C, occluded conformation, C2 symmetry, 3.5 A

Row | Protein | binding result [1] | binding result [2]
1 | B1 | binds | 
2 | B2 |  | binds
